Source: patent US20200407436A1 (published 2020)

Key:
mature human TGF-beta 1 [1] = target: T1, mature human TGF-beta 1 (human, UniProt P01137 279-390); test: cell-based or functional assay
mature human TGF-beta 2 [2] = target: T2, mature human TGF-beta 2 (human, UniProt P61812 303-414); test: cell-based or functional assay
T2 sequence: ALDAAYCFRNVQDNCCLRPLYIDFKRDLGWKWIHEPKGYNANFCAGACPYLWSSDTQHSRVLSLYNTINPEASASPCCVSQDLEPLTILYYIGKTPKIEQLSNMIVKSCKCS

[3] = target: endogenously produced TGF-beta in the RPTEC and HRF co-culture system; test: cell-based or functional assay
[4] = target: T3, full length TGF-beta 1 including the latency associated peptide (human, UniProt P01137 30-390); test: analytical gel filtration
T3 construct: also called latent TGF-beta 1; human Latency-associated Peptide and TGF-beta 1

mature human TGF-beta 1 [5] = target: T1, mature human TGF-beta 1; test: SPR Biacore T200, human TGF-beta amine-coupled (~20 RU), E. coli derived Fab as analyte; heterogeneous fit, component 1 (kd1; believed occluded)
Protocol: (§1) Human TGF-β isoforms 1, 2, and 3 (Peprotech) were immobilised on CMS Series S chip via amine coupling chemistry on Flowcell 2, 3 and 4 (respectively) to a level of approximately 20 RU. HBS-EP buffer (10 mM HEPES pH 7.4, 0.15 M NaCl, 3 mM EDTA, 0.05% Surfactant P20, GE Healthcare) was used as the running buffer. […] The surface was regenerated by 2×10 μL injection of 10 mM HCl at a flowrate of 10 uL/min.
(§2) Background subtraction binding curves were analysed using the T200 evaluation software (version 1.0; GE Healthcare) following standard procedures. Kinetic parameters were determined using heterogeneous fitting algorithm with RI=0), as described in Example 3, and the values are provided in Table 4.

mature human TGF-beta 3 = target: T4, mature human TGF-beta 3 (human, UniProt P10600 301-412); test: as above
T4 construct: also called TGFb3; TGFB3
T4 sequence: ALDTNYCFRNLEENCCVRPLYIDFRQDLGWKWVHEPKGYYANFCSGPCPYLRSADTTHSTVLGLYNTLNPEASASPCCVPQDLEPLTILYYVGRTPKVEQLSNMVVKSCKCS
Protocol: as §1, §2

mature human TGF-beta 2 [6] = target: T2, mature human TGF-beta 2; test: as above
Protocol: as §1, §2

T1 sequence (P01137 279-390 limits assumed): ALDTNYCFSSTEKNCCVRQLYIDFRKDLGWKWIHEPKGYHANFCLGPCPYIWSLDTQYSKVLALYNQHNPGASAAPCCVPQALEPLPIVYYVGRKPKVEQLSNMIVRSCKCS
T3 sequence (P01137 30-390 limits assumed): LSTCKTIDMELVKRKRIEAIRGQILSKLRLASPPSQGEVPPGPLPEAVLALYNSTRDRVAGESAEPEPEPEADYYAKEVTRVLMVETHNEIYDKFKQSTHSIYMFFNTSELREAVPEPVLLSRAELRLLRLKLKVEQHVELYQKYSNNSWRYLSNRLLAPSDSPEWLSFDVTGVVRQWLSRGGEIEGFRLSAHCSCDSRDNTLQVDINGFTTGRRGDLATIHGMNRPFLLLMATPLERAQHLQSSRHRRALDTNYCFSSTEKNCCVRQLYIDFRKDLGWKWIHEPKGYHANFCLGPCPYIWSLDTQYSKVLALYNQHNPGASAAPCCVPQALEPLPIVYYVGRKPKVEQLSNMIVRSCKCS

Geo Mean IC50, Collagen I &III deposition, RPTEC mono-culture + TGFB1 (mature human TGF-beta 1 [1]): 11.2 nM
Geo Mean IC50, Collagen V deposition, RPTEC mono-culture + TGFB1 (mature human TGF-beta 1 [1]): 43.7 nM
Geo Mean IC50, Fibronectin deposition, RPTEC mono-culture + TGFB1 (mature human TGF-beta 1 [1]): 19.2 nM
IC50 (N = 1), Collagen I &III deposition, RPTEC mono-culture + TGFB1 (mature human TGF-beta 1 [1]): 5.1 nM
IC50 (N = 1), Collagen V deposition, RPTEC mono-culture + TGFB1 (mature human TGF-beta 1 [1]): 13.1 nM
IC50 (N = 1), Fibronectin deposition, RPTEC mono-culture + TGFB1 (mature human TGF-beta 1 [1]): 12.6 nM
IC50 (N = 2), Collagen I &III deposition, RPTEC mono-culture + TGFB1 (mature human TGF-beta 1 [1]): 13.8 nM
IC50 (N = 2), Collagen V deposition, RPTEC mono-culture + TGFB1 (mature human TGF-beta 1 [1]): 92.1 nM
IC50 (N = 2), Fibronectin deposition, RPTEC mono-culture + TGFB1 (mature human TGF-beta 1 [1]): 57.4 nM
IC50 (N = 3), Collagen I &III deposition, RPTEC mono-culture + TGFB1 (mature human TGF-beta 1 [1]): 19.8 nM
IC50 (N = 3), Collagen V deposition, RPTEC mono-culture + TGFB1 (mature human TGF-beta 1 [1]): 69.4 nM
IC50 (N = 3), Fibronectin deposition, RPTEC mono-culture + TGFB1 (mature human TGF-beta 1 [1]): 9.8 nM
Geo Mean IC50, Collagen I &III deposition, RPTEC mono-culture + TGFB2 (mature human TGF-beta 2 [2]): 0.3 nM
Geo Mean IC50, Collagen V deposition, RPTEC mono-culture + TGFB2 (mature human TGF-beta 2 [2]): 3.1 nM
Geo Mean IC50, Fibronectin deposition, RPTEC mono-culture + TGFB2 (mature human TGF-beta 2 [2]): 0.3 nM
IC50 (N = 1), Collagen I &III deposition, RPTEC mono-culture + TGFB2 (mature human TGF-beta 2 [2]): < 2 nM
IC50 (N = 1), Collagen V deposition, RPTEC mono-culture + TGFB2 (mature human TGF-beta 2 [2]): 0.52 nM
IC50 (N = 1), Fibronectin deposition, RPTEC mono-culture + TGFB2 (mature human TGF-beta 2 [2]): 0.16 nM
IC50 (N = 2), Collagen I &III deposition, RPTEC mono-culture + TGFB2 (mature human TGF-beta 2 [2]): 0.6 nM
IC50 (N = 2), Collagen V deposition, RPTEC mono-culture + TGFB2 (mature human TGF-beta 2 [2]): 10.5 nM
IC50 (N = 2), Fibronectin deposition, RPTEC mono-culture + TGFB2 (mature human TGF-beta 2 [2]): 0.76 nM
IC50 (N = 3), Collagen I &III deposition, RPTEC mono-culture + TGFB2 (mature human TGF-beta 2 [2]): 0.13 nM
IC50 (N = 3), Collagen V deposition, RPTEC mono-culture + TGFB2 (mature human TGF-beta 2 [2]): 5.29 nM
IC50 (N = 3), Fibronectin deposition, RPTEC mono-culture + TGFB2 (mature human TGF-beta 2 [2]): 0.22 nM
Geo Mean IC50, Collagen I &III deposition, RPTEC and HRF co-culture [3]: 32.8 nM
Geo Mean IC50, Collagen V deposition, RPTEC and HRF co-culture [3]: 56.3 nM
Geo Mean IC50, Fibronectin deposition, RPTEC and HRF co-culture [3]: 29.7 nM
IC50 (N = 1), Collagen I &III deposition, RPTEC and HRF co-culture [3]: 22.4 nM
IC50 (N = 1), Collagen V deposition, RPTEC and HRF co-culture [3]: 38.9 nM
IC50 (N = 1), Fibronectin deposition, RPTEC and HRF co-culture [3]: 32.6 nM
IC50 (N = 2), Collagen I &III deposition, RPTEC and HRF co-culture [3]: 48 nM
IC50 (N = 2), Collagen V deposition, RPTEC and HRF co-culture [3]: 81.6 nM
IC50 (N = 2), Fibronectin deposition, RPTEC and HRF co-culture [3]: 27.1 nM
binding result [4]: no binding
koff (mature human TGF-beta 1 [5]): 0.000709 s⁻¹
koff (mature human TGF-beta 3): 0.00146 s⁻¹
koff (mature human TGF-beta 2 [6]): 0.000211 s⁻¹
B1: humanised antibody 4856 Fab graft gL3gH13 (Fab, V domains shown)
VH: EVQLVESGGGLVKPGGSLRLSCAASGFSLSSYDMSWVRQAPGKGLEWIGIIYGGSGSTWYASWAKGRFTISRDSAKNSVYLQMNSLRAEDTAVYYCARGRDAGAGGSRNGYSLWGQGTLVTVSS
VL: AYDMTQSPSTLSASVGDRVTITCQASESIYSGLAWYQQKPGKAPKLLIYAASDLASGVPSRFSGSGSGTEYTLTISSLQPDDFATYYCQQTWTDGGIDNPFGGGTKVEIKR
notes: Human gamma-1 CH1 (G1m17) and human C-kappa (K1m3); also called 4856gL3gH13
